Data reported in patent US20230322953A1 (HARBOUR BIOMED SHANGHAI, published 2023).
Several values for one entry are separate records, joined by “and”; a condition that tells them apart may be missing. Equal values may be shown once.

T1: human BCMA (human, UniProt Q02223 1-184)
T1 construct: whole, on cells; also called hBCMA; TNFRSF17
T1 sequence (looked up): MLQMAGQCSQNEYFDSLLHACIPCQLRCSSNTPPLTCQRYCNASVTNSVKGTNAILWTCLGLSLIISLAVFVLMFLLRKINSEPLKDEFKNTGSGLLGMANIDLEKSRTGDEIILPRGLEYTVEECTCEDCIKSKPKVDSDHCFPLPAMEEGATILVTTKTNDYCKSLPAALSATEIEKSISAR


Key:
[1] = target: T1, human BCMA; assay: FACS on HEK293T/hBCMA cells, Experiment 3
[2] = target: T1, human BCMA; assay: FACS on NCI-H929 cells
[3] = target: T1, human BCMA; assay: FACS on HEK293T/hBCMA cells, Experiment 2
[4] = target: T2, cynomolgus monkey BCMA (cynomolgus monkey, UniProt A0A2K5UD97 1-183); assay: FACS on HEK293T/cyno BCMA cells
T2 construct: whole, on cells; also called cyno BCMA

[5] = target: T3, human PD-L1 on cells (CHO-K1/hPDL1; MDA-MB-231) (human, UniProt Q9NZQ7 19-290); assay: FACS, CHO-K1/hPDL1 cells (Experiment 1)
T3 construct: whole, on cells

[6] = target: T3, human PD-L1 on cells (CHO-K1/hPDL1; …); assay: competition FACS: biotinylated PD-1 to CHO-K1/hPDL1 cells (Experiment 1)
[7] = target: T4, human PD-L1-His protein (ACRO Biosystems, #PD1-H5229) (human, UniProt Q9NZQ7 19-238); assay: ELISA, coated hPD-L1-His
T4 construct: extracellular domain; bought; also called hPDL1-His; human PD-L1 extracellular domain recombinant protein
T4 sequence (Q9NZQ7 19-238): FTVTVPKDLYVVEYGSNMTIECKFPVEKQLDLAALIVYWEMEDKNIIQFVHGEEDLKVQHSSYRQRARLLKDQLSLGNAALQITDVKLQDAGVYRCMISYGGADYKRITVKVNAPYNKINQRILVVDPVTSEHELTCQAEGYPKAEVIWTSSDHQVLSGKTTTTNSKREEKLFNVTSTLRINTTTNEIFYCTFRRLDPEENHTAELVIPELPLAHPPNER

T3 sequence (Q9NZQ7 19-290): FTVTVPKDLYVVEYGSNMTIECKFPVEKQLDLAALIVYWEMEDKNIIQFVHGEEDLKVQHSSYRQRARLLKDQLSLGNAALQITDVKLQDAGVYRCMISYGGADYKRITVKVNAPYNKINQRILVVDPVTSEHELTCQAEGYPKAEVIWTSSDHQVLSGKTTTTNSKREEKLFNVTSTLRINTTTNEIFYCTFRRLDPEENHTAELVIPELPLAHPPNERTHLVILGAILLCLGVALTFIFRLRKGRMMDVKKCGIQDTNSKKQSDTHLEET
T2 sequence (A0A2K5UD97 entry or part of it): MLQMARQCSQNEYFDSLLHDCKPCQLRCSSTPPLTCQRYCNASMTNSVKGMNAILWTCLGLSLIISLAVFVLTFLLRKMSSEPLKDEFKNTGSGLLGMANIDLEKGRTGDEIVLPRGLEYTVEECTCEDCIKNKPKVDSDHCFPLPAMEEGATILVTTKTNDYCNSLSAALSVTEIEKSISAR

Row | EC50 [1] [nM] | Maximum MFI [1] | EC50 [2] | EC50 [3] [nM] | Maximum MFI [3] | Maximum MFI [4] | Maximum MFI [2] | EC50 [5] [nM] | Maximum MFI [5] [MFI] | IC50 [6] [nM] | Maximum inhibition rate (%) [6] [%] | EC50 [7] [nM] | Maximum OD450 [7] [OD450] | Binder
1 | 0.259 | 100000 | 1.73 nM and 1.34 nM | 0.355 | 15000 | – | – | – | – | – | – | – | – | PR002309 (bispecific antibody, human IgG1, lambda, L234A L235A) light: QAVVTQEPSLTVSPGGTVTLTCRSSTGAVTTSNYANWVQQKPGQAPRGLIGGTNKRAPWTPARFSGSLLGDKAALTLLGAQPEDEAEYFCALWYSNLWVFGGGTKLTVLGQPKAAPSVTLFPPSSEELQANKATLVCLISDFYPGAVTVAWKADSSPVKAGVETTTPSKQSNNKYAASSYLSLTPEQWKSHRSYSCQVTHEGSTVEKTVAPTECS heavy: EVQLLESGGGLVQPGGSLRLSCAASGFTFSTYAMNWVRQAPGKGLEWVSRIRSKYNNYATYYADSVKDRFTISRDDSKSTLYLQMNSLRAEDTAVYYCVRHGNFGNSYVSWFAYWGQGTLVTVSSASTKGPSVFPLAPSSKSTSGGTAALGCLVKDYFPEPVTVSWNSGALTSGVHTFPAVLQSSGLYSLSSVVTVPSSSLGTQTYICNVNHKPSNTKVDKKVEPKSCDKTHTCPPCPAPEAAGGPSVFLFPPKPKDTLMISRTPEVTCVVVDVSHEDPEVKFNWYVDGVEVHNAKTKPREEQYNSTYRVVSVLTVLHQDWLNGKEYKCKVSNKALGAPIEKTISKAKGQPREPQVYTLPPCREEMTKNQVSLWCLVKGFYPSDIAVEWESNGQPENNYKTTPPVLDSDGSFFLYSKLTVDKSRWQQGNVFSCSVMHEALHNHYTQKSLSLSPGK EVQLVETGGGLIQPGGSLRLSCAASGFTVSDNYMTWVRQAPGKGLEWVSVIFSGGNTYYADSVKGRFTISRDNAKNTLYLQMNSLRAEDTALYYCARRNYDDTRGTDVFDIWGQGTMVTVSSRTGGGGSGGGGSGGGGSKLEVQLVETGGGLIQPGGSLRLSCAASGFTVSDNYMTWVRQAPGKGLEWVSVIFSGGNTYYADSVKGRFTISRDNAKNTLYLQMNSLRAEDTALYYCARRNYDDTRGTDVFDIWGQGTMVTVSSASEPKSSDKTHTCPPCPAPEAAGGPSVFLFPPKPKDTLMISRTPEVTCVVVDVSHEDPEVKFNWYVDGVEVHNAKTKPREEQYNSTYRVVSVLTVLHQDWLNGKEYKCKVSNKALGAPIEKTISKAKGQPREPQVCTLPPSREEMTKNQVSLSCAVKGFYPSDIAVEWESNGQPENNYKTTPPVLDSDGSFFLVSKLTVDKSRWQQGNVFSCSVMHEALHNHYTQKSLSLSPGK
2 | 0.183 | 93200 | 1.53 nM and 2.01 nM | 0.385 | 14000 | – | – | – | – | – | – | – | – | PR002895 (bispecific antibody, human IgG1, lambda, L234A L235A) light: QAVVTQEPSLTVSPGGTVTLTCRSSTGAVTTSNYANWVQQKPGQAPRGLIGGTNKRAPWTPARFSGSLLGDKAALTLLGAQPEDEAEYFCALWYSNLWVFGGGTKLTVLGQPKAAPSVTLFPPSSEELQANKATLVCLISDFYPGAVTVAWKADSSPVKAGVETTTPSKQSNNKYAASSYLSLTPEQWKSHRSYSCQVTHEGSTVEKTVAPTECS heavy: not shown EVQLVETGGGLIQPGGSLRLSCAASGFTVSDNYMTWVRQAPGKGLEWVSVIFSGGNTYYADSVKGRFTISRDNAKNTLYLQMNSLRAEDTALYYCARRNYDDTRGTDVFDIWGQGTMVTVSSGGGGSGGGGSGGGGSEVQLVETGGGLIQPGGSLRLSCAASGFTVSDNYMTWVRQAPGKGLEWVSVIFSGGNTYYADSVKGRFTISRDNAKNTLYLQMNSLRAEDTALYYCARRNYDDTRGTDVFDIWGQGTMVTVSSASEPKSSDKTHTCPPCPAPEAAGGPSVFLFPPKPKDTLMISRTPEVTCVVVDVSHEDPEVKFNWYVDGVEVHNAKTKPREEQYNSTYRVVSVLTVLHQDWLNGKEYKCKVSNKALPAPIEKTISKAKGQPREPQVCTLPPSREEMTKNQVSLSCAVKGFYPSDIAVEWESNGQPENNYKTTPPVLDSDGSFFLVSKLTVDKSRWQQGNVFSCSVMHEALHNHYTQKSLSLSPGK
3 | 0.188 | 99300 | 1.23 nM | – | – | 115000 | 15600 | – | – | – | – | – | – | PR003178 (bispecific antibody, human IgG1, lambda, L234A L235A) light: QAVVTQEPSLTVSPGGTVTLTCRSSTGAVTTSNYANWVQQKPGQAPRGLIGGTNKRAPWTPARFSGSLLGDKAALTLLGAQPEDEAEYFCALWYSNLWVFGGGTKLTVLGQPKAAPSVTLFPPSSEELQANKATLVCLISDFYPGAVTVAWKADSSPVKAGVETTTPSKQSNNKYAASSYLSLTPEQWKSHRSYSCQVTHEGSTVEKTVAPTECS heavy: not shown EVQLVETGGGLIQPGGSLRLSCAASGFTVSDNYMTWVRQAPGKGLEWVSVIFSGGNTYYADSVKGRFTISRDNAKNTLYLQMNSLRAEDTALYYCARRNYDDTRGTDVFDIWGQGTMVTVSSGGGGSGGGGSGGGGSEVQLVETGGGLIQPGGSLRLSCAASGFTVSDNYMTWVRQAPGKGLEWVSVIFSGGNTYYADSVKGRFTISRDNAKNTLYLQMNSLRAEDTALYYCARRNYDDTRGTDVFDIWGQGTMVTVSSASEPKSSDKTHTCPPCPAPEAAGGPSVFLFPPKPKDTLMISRTPEVTCVVVDVSHEDPEVKFNWYVDGVEVHNAKTKPREEQYNSTYRVVSVLTVLHQDWLNGKEYKCKVSNKALPAPIEKTISKAKGQPREPQVCTLPPSREEMTKNQVSLSCAVKGFYPSDIAVEWESNGQPENNYKTTPPVLDSDGSFFLVSKLTVDKSRWQQGNVFSCSVMHEALHNHYTQKSLSLSPGK
4 | 0.226 | 91600 | 1.34 nM and 2.91 nM | – | 25200 | – | – | – | – | – | – | – | – | PR002953 (bispecific antibody, human IgG1, lambda, L234A L235A) light: QAVVTQEPSLTVSPGGTVTLTCRSSTGAVTTSNYANWVQQKPGQAPRGLIGGTNKRAPWTPARFSGSLLGDKAALTLLGAQPEDEAEYFCALWYSNLWVFGGGTKLTVLGQPKAAPSVTLFPPSSEELQANKATLVCLISDFYPGAVTVAWKADSSPVKAGVETTTPSKQSNNKYAASSYLSLTPEQWKSHRSYSCQVTHEGSTVEKTVAPTECS heavy: not shown EVQLVETGGGLIQPGGSLRLSCAASGFTVSDNYMTWVRQAPGKGLEWVSVIFSGGNTYYADSVKGRFTISRDNAKNTLYLQMNSLRAEDTALYYCARRNYDDTRGTDVFDIWGQGTMVTVSSGGGGSGGGGSGGGGSEVQLVETGGGLIQPGGSLRLSCAASGFTVSDNYMTWVRQAPGKGLEWVSVIFSGGNTYYADSVKGRFTISRDNAKNTLYLQMNSLRAEDTALYYCARRNYDDTRGTDVFDIWGQGTMVTVSSASEPKSSDKTHTCPPCPAPEAAGGPSVFLFPPKPKDTLMISRTPEVTCVVVDVSHEDPEVKFNWYVDGVEVHNAKTKPREEQYNSTYRVVSVLTVLHQDWLNGKEYKCKVSNKALPAPIEKTISKAKGQPREPQVCTLPPSREEMTKNQVSLSCAVKGFYPSDIAVEWESNGQPENNYKTTPPVLDSDGSFFLVSKLTVDKSRWQQGNVFSCSVMHEALHNHYTQKSLSLSPGK
5 | – | – | – | – | – | – | – | 0.747 | 22700 | 0.725 | 96.8 | 0.146 | 3.45 | PR000070, anti-PD-L1 91G3H5H3, hIgG1(N297A) (antibody, V domains shown) VH: EVQLVESGGGLVQPGGSLRLSCAASGFTFSSYWMSWVRQAPGKGLEWVANIKQDGSEKYYVDSVKGRFTISRDNAKNSLYLQMNSLRAEDTAVYYCARDRAVAGAFDIWGQGTMVTVSS VL: DIQMTQSPSTLSASVGDRVTVTCRASQSIYIWLAWYQQKPGKAPNLLIYKASSLETGVPSRFSGSGSGTEFTLTISSLQPDDFATYYCQQYYGSSRTFGQGTKVEIKR
6 | 0.602 | 117000 | 4.29 nM | 1.13 | 17000 | – | 88200 | – | – | – | – | – | – | PR002199 (bispecific antibody, human IgG1, kappa, L234A L235A, also called Positive control 2) chain 1: not shown chain 2: EVQLVESGGGLVQPGRSLRLSCAASGFTFDDYAMHWVRQAPGKGLEWVSGISWNSGSIGYADSVKGRFTISRDNAKNSLYLQMNSLRAEDTALYYCAKDSRGYGDYRLGGAYWGQGTLVTVSSASTKGPSVFPLAPSSKSTSGGTAALGCLVKDYFPEPVTVSWNSGALTSGVHTFPAVLQSSGLYSLSSVVTVPSSSLGTQTYICNVNHKPSNTKVDKKVEPKSCDKTHTCPPCPAPEAAGGPSVFLFPPKPKDTLMISRTPEVTCVVVDVSHEDPEVKFNWYVDGVEVHNAKTKPREEQYNSTYRVVSVLTVLHQDWLNGKEYKCKVSNKALGAPIEKTISKAKGQPREPQVYTLPPCREEMTKNQVSLWCLVKGFYPSDIAVEWESNGQPENNYKTTPPVLDSDGSFFLYSKLTVDKSRWQQGNVFSCSVMHEALHNHYTQKSLSLSPGK chain 3: EVQLLESGGGLVQPGGSLRLSCAASGFTVSSYGMSWVRQAPGKGPEWVSGIRGSDGSTYYADSVKGRFTISRDNSKNTLYLQMNSLRAEDTAVYYCAKQGENDGPFDHRGQGTLVTVSSGGGGSEVQLLESGGGLVQPGGSLRLSCAASGFTVSSYGMSWVRQAPGKGPEWVSGIRGSDGSTYYADSVKGRFTISRDNSKNTLYLQMNSLRAEDTAVYYCAKQGENDGPFDHRGQGTLVTVSSASEPKSSDKTHTCPPCPAPEAAGGPSVFLFPPKPKDTLMISRTPEVTCVVVDVSHEDPEVKFNWYVDGVEVHNAKTKPREEQYNSTYRVVSVLTVLHQDWLNGKEYKCKVSNKALGAPIEKTISKAKGQPREPQVCTLPPSREEMTKNQVSLSCAVKGFYPSDIAVEWESNGQPENNYKTTPPVLDSDGSFFLVSKLTVDKSRWQQGNVFSCSVMHEALHNHYTQKSLSLSPGK
